Patent US20240294645A1 (HANGZHOU SUMGEN BIOTECH, published 2024)

B1: bispecific fusion protein 12VF2 (bispecific antibody, human IgG1, kappa)
light: EIVLTQSPGTLSLSPGERATLSCRASQRVSSSYLAWYQQKPGQAPRLLIYDASSRATGIPDRFSGSGSGTDFTLTISRLEPEDFAVYYCQQYGSLPWTFGQGTKVEIKRTVAAPSVFIFPPSDEQLKSGTASVVCLLNNFYPREAKVQWKVDNALQSGNSQESVTEQDSKDSTYSLSSTLTLSKADYEKHKVYACEVTHQGLSSPVTKSFNRGEC
heavy: EVQLVESGGGLVQPGGSLRLSCAASGFTFSRYWMSWVRQAPGKGLEWVANIKQDGSEKYYVDSVKGRFTISRDNAKNSLYLQMNSLRAEDTAVYYCAREGGWFGELAFDYWGQGTLVTVSSASTKGPSVFPLAPSSKSTSGGTAALGCLVKDYFPEPVTVSWNSGALTSGVHTFPAVLQSSGLYSLSSVVTVPSSSLGTQTYICNVNHKPSNTKVDKRVEPKSCDKTHTCPPCPAPEFEGGPSVFLFPPKPKDTLMISRTPEVTCVVVDVSHEDPEVKFNWYVDGVEVHNAKTKPREEQYNSTYRVVSVLTVLHQDWLNGKEYKCKVSNKALPASIEKTISKAKGQPREPQVYTLPPSREEMTKNQVSLTCLVKGFYPSDIAVEWESNGQPENNYKTTPPVLDSDGSFFLYSKLTVDKSRWQQGNVFSCSVMHEALHNHYTQKSLSLSPGKGGGGSGGGGSSDTGRPFVEMYSEIPEIIHMTEGRELVIPCRVTSPNITVTLKKFPLDTLIPDGKRIIWDSRKGFIISNATYKEIGLLTCEATVNGHLYKTNYLTHRQTNTIIDVVLSPSHGIELSVGEKLVLNCTARTELNVGIDFNWEYPSSKHQHKKLVNRDLKTQSGSEMKKFLSTLTIDGVTRSDQGLYTCAASSGLMTKKNSTFVRVHE
B2: SG1202 (printed 'a PD-L2 antibody 1'; used as PD-L1 antibody, apparently PD-L1 antibody 2) (antibody, V domains shown)
VH: EVQLVESGGGLVQPGGSLRLSCAASGFTFSRYWMSWVRQAPGKGLEWVANIKQDGSEKYYVDSVKGRFTISRDNAKNSLYLQMNSLRAEDTAVYYCAREGGWFGELAFDYWGQGTLVTVSS
VL: EIVLTQSPGTLSLSPGERATLSCRASQRVSSSYLAWYQQKPGQAPRLLIYDASSRATGIPDRFSGSGSGTDFTLTISRLEPEDFAVYYCQQYGSLPWTFGQGTKVEIK
notes: Only variable regions are tied to SG1202; also called PD-L1 antibody SG1202; antibody SG1202

Columns and labels:
[1] = biological target: VEGF165 Protein, Human, Cynomolgus, Recombinant, HPLC-verified (Sino Biological) (Human, Cynomolgus, UniProt P15692-4 27-191); assay: competition ELISA, VEGF165 coated, competitor biotin-labeled VEGFR2
Protocol: (§1) 100 μL of 2N H₂SO4 stop solution was added to each well to terminate the substrate reaction.

[2] = biological target: T1, Biotinylated Human VEGF165 Protein, His, Avitag (Acro Biosystems) (human, UniProt P15692-4 27-191, biotin-labeled (site not stated; Avitag)); assay: competition ELISA, VEGFR1 coated (competitor), biotin-labeled VEGF165 detected
T1 construct: also called biotin-labeled VEGF165; not shown: His tag and Avitag
Protocol: as §1

[3] = biological target: T2, VEGF 121 Protein, Human, Recombinant (Sino Biological) (human, UniProt P15692-9 27-147); assay: competition ELISA, VEGF121 coated, competitor biotin-labeled VEGFR2
T2 sequence (looked up): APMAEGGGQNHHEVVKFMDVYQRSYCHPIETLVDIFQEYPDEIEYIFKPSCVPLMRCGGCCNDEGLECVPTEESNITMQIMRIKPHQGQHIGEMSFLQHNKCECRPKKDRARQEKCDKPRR

[4] = biological target: T1, Biotinylated Human VEGF165 Protein, …; assay: bridging ELISA: PD-L1 coated, sample, then biotin-labeled VEGF165

| Binder | IC50 [1] | IC50 [2] | IC50 [3] | binding result [4] |
| --- | --- | --- | --- | --- |
| B1 | 3.5 nM | 5.05 nM | 3.29 nM |  |
| B2 |  |  |  | no binding |
